Data as given in the nanobody polyreactivity screen of Harvey et al. (2022).

assay: yeast display, Sf9 membrane polyspecificity reagent, FACS + sequencing; frameworks hold sequencing errors
Method in brief: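 Polyreactivity labels are assigned by the sorting gate from which each nanobody was recovered. The gates were low and high (top ~1%), set on anti-HA fluorescence for expression and streptavidin fluorescence for reagent binding. Before sorting, galactose-induced (36–48 hours) yeast display cells were stained for 1 hour at 4 °C with 10% biotinylated, detergent-solubilized Sf9 membrane reagent.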

Row | Sequence | polyreactivity (PSR sort gate)
1 | QVQLVESGVGLVQAGGSLRLICAASGSIFGYNAMGWYRQAPGKERELVAAISRSGGRTYYADSVKGSFTISRDNAKNTVYLQMNSLKPEDTAVYYCAASRPGLRTPGQMGYWGQGTQVTVSS | high polyreactivity
2 | QVQLVESGVGLVQAGGSLRLSCAASGFIFKRYAMGWYRQAPGKERELVATISNSGGRTYYADSVKWRFTISRDNAKNTVYLQMNSLKPEDTAVYYCAALPFWWGGYWGQGTQVTVSS | high polyreactivity
3 | QVQLVESGVGLVQAGGSLRLSCAASGFIFWLYAMGWYRQAPGKERELVAGITRGGGSTYYADSVKRRFTISRDNAKNTVYLQMNSLKPEDTAVYYCAADAWSSYLDRPFDYWGQGTQVTVSS | high polyreactivity
4 | QVQLVESGVGLVQAGGSLRLSCAASGFTFDDNAMGWYRQAPGKERDFVASITNSTGSTYADSVKGRFTISRDNAKNTFYLQMNSLKPEDTAVDYCAVDNISNWAVENDYWGQGTQVTVSS | low polyreactivity
5 | QVQLVESGVGLVQAGGSLRLSCAASGGIFGKYVMGWSRQAPGKERELVAAITLRGGSTYYADSVKGRFTISRDNAKNTVYLQMNSLKPEDTAVYYCPRRAYQNWYNYWGQGTQVTVSS | high polyreactivity
6 | QVQLVESGVGLVQAGGSLRLSCAASGIFYGYAMGWYRQAPGKERELVAAISSGGSTYYADSVKGRFTISRDNAKNTVYLQMISLNPEDTAVYYCAAGKKRPGWTFPRYYWGQGTQVTVSS | high polyreactivity
7 | QVQLVESGVGLVQAGGSLRLSCAASGIIFASNGMGWYRQAPGKERELVAAISSGGSTNYADSVKGRFTISRDNAKNTVYLQMNSLKPEDTAVYYCAADRWNREYDYWGQGTQVTVSS | low polyreactivity
8 | QVQLVESGVGLVQAGGSLRLSCAASGLIFFFYAMGWYRQAPGKERELVASISGGGITYYADSVKGRFTISRDNAKNTVYLQMNSLKPEDTAVIKNDYWGQGTQVTVSS | low polyreactivity
9 | QVQLVESGVGLVQAGGSLRLSCAASGLIFGRNVMGWYRQAPGKERVLVAAISWSGGRTYYADSVKGRFTISRDNAKNTGYLQMNRLKPEDTAVDYCATDRSTRTYRSPYDYWGQGTQVTVSS | high polyreactivity
10 | QVQLVESGVGLVQAGGSLRLSCAASGLIFYHNAMGWYRQAPGKERELVAAISRSGGRTYYADSVKGRFTISRDNAKNTVYLQMNSLKPEDSAVYYCAVYRSSDFDYWGQGTQVTVSS | high polyreactivity
11 | QVQLVESGVGLVQAGGSLRLSCAASGLTFDYNAMGWYRQAPGKERELVARISRSGGTTYYADSVKGRFTISRDNAKNTVYLQMNSLKPEDTAVYYCAAERYYVGAYGYWGQGTQVTVSS | high polyreactivity
12 | QVQLVESGVGLVQAGGSLRLSCAASGRIFAGYAMGWYRQAPGKERELVATISSGGSTYYADSVKGRFTISRDNAKNTVYLQMNSLKPEDTAVYYCAAEYGTRQYSSYYKLFNYWGQGTQVTVSS | low polyreactivity
13 | QVQLVESGVGLVQAGGSLRLSCAASGRIFHYNAMGWYRQAPGKERELVAAISTGGSTNYADSVKGRFTISRDNAKNTVYLQMNSLKPEDTAVYYCAADRTLSYEYWGQGTQVTVSS | low polyreactivity
14 | QVQLVESGVGLVQAGGSLRLSCAASGRIFTLNAMGWYRQAPGKERELFAGISRTGGSTYYADSVKVRFPISRDNAKNTVYLQMNSLKPEDTAVYYCAAAGFRRQPGAGAYYYWGQGTQVTVSS | high polyreactivity
15 | QVQLVESGVGLVQAGGSLRLSCAASGRNFAYYAMGWYRQAPGKERELVAAISSGGTTNYADSVKGRFTISRDNAKNTVYLQMNSLKPDDTAVYDCNADGWRRSRQYYYWGQGTQVTVSS | low polyreactivity
16 | QVQLVESGVGLVQAGGSLRLSCAASGRTFFNYVMGWYRPAPGKERELVAAISRSGGSTYYADSVKGRFTLSRDNAKNTVYLQMNSLKPEDTAVYYCAADKYYEYYWGQATQVTVSS | high polyreactivity
17 | QVQLVESGVGLVQAGGSLRLSCAASGRTFGYYAMGWYRLAPGKERELVAAISSGGSTNYADSVKGRFTISRDNAKNTVYLQMNSLKPEDTAVYYCAAKAWYYPGRRNYYQYYYWGQGTQVTVSS | high polyreactivity
18 | QVQLVESGVGLVQAGGSLRLSCAASGRTFPPYAMGWYRQAPGKERELVAAISSDGSTYADSVKGRFTISRDNAKNTVYLQMNSLKPEDTAVYYCAVDYTYSYRKHFGHILYSWGQGTQVTVSS | low polyreactivity
19 | QVQLVESGVGLVQAGGSLRLSCAASGRTFPSYNMGWYRQAPGKERELVAAITWTGGSTYYSDSVKGRFTISRDNAKNTVYLQMNSLKPEDTAVYYCATEEVYGQGNYWGQGTQVTVSS | low polyreactivity
20 | QVQLVESGVGLVQAGGSLRLSCAASGRTFRANAMGWYRQAPGKERELVAAITWDGGSTYYADSVKGRFTISRDNAKNTVYLLMYSLKPEDTAVYYCNTYPYLWGQGTQVTLSS | low polyreactivity
21 | QVQLVESGVGLVQAGGSLRLSCAASGRTFVYAMGWYRQAPGKERELVAAISYNGGSTYYADSVKGRFTISRDNAKNTVYLQMNSLKPEDTAVYYCAADISVGRYGDMDYWGQGTQVTVSS | low polyreactivity

Row | Sequence | polyreactivity (PSR sort gate)
22 | QVQLVESGVGLVQAGGSLRLSCAASGSIFDANTMGWYRQAPGKERELVAAITGSGASTYYADSVKGRFTISRDNAKNTVYLQMNSLKPEDSAVYYCAARRYTSYYKDGWYAYYYWGQGTQVTVSS | high polyreactivity
23 | QVQLVESGVGLVQAGGSLRLSCAASGSIFGRNAMGWYRQAPGKERELVARISYIGGSTYYADSVKGRFTISRDNEKNTVYLQMNSLKPEDTSVYYCAKRYGFGYKRMDYWGQGTQVTVSS | low polyreactivity
24 | QVQLVESGVGLVQAGGSLRLSCAASGSIFIRNAMGWYRQAPGKERELVAAISGSGSSTYYADSVKGRFTISRDTAKNTVYLQMNILKPEDTAVYYCNTDRTHSYQYGGYDYWGQGTQVTVSS | low polyreactivity
25 | QVQLVESGVGLVQAGGSLRLSCAASGSIFLTYDMGWYRPAPGKERELVAAITGSGDSTYYADSVKGRFTISRDNAKNTVYLQMNSLKPEDTAVYYCNTLVGVDFWLVDYWGQGTQVTLSS | low polyreactivity
26 | QVQLVESGVGLVQAGGSLRLSCAASGSIFQSYDMGWYRQAPGKERELVAAISWSGSTTYYADSVKGRFTISRDNAKNTVYLQMNSLKPEDTAVYYCAVDSNPPDWWAVIYGFWGQGTQVTVSS | low polyreactivity
27 | QVQLVESGVGLVQAGGSLRLSCAASGSIFVNYAMGWYRQAPWKERELVAAITLRGGSTFYADSVKGRFTISRDNAKNTVYLQMHSLKPEDTAVYYCAASSLRYRAYKSLFDFWGQGTQVTVSS | low polyreactivity
28 | QVQLVESGVGLVQAGGSLRLSCAASGSSFTSNAMGSYRQAPGKEREFVAAISVGGGITYYADSVKGRFTISRDNAKNTVYLQMYSLKPEDTAVYYCAADGEYPHSEDFEYWGQGTQVTVSS | low polyreactivity
29 | QVQLVESGVGLVQAGGSLRLSCAASGSTFFIYPMGLYRQAPGKERELVAAIRSGGTYYADSVKGRFTISRDNAKNTVYLQMNSLNPEDTAVYYCAARTRGFRYYYWGQGSQVTVSS | high polyreactivity
30 | QVQLVESGVGLVQAGGSLRLSCAASGSTFGGYAMVWYRQAPGKESELVAAIYSSGGNTNYADSVKGRFTISRDNAKNTVYLQMNSLIPEDTAVYYCARDTQLPHFYGRVSEYDYWGQGTQVTVSS | low polyreactivity
31 | QVQLVESGVGLVQAGGSLRLSCAASGSTFYPNAMGWYRQAPRKERELVAAISRGTRTKYADSVKGRFTISRDNAKNTVYLQMNSLKPEDTAVYYCAADTGTGLDWGQGTQVTVSS | high polyreactivity
32 | QVQLVESGVGLVQAGGSLRLSCAASGSTFYSNAMGWNRQAPGKERELVASISWSSGSTYYADSVKGRFTISRDNAKNTVYLQMNSLKPEDTAVYYCATDAGGPYRFGYWGQGTQVTVSS | low polyreactivity
33 | QVQLVESGVGLVQAGGSLRLSCAASGSTFYYYAMGWYRQAPGKERELVAAISWSGASTFYADSVKGRFTISRDNAKITVYLQMNSLKPEDTAVFYCAARYYGQPQYQPLYYWGQGTQVTVSS | high polyreactivity
34 | QVQLVESGVGLVQAGGSLRLSCAASGSTIQYYAQGRYRQAPGKEREFVAAISISGGSTYYADSLKGRFTISRDNAKNTVYLQMNSLIPEDSEVYYCAARKKEYKPGKYWGQGTQVTVSS | low polyreactivity
35 | QVQLVESGVGLVQAGGSLRLSCAASGYIFYQYAMGWYRQAPGKERELVSTISWRGGSTYYADSVKGRFTISRDNAKNTVYLQMNCLKPEDTAVYYCAARKRPYTVINGMDYWGQGTQVTVSS | low polyreactivity
36 | QVQLVESGVGLVQAGGSLRLSCAASGYTFQINAMGWYRQAPGKERELVAAITSGGRTYYADSVKGRFTISRDNAKNTVYLQMNSLKAEDTAVYYCNKVPRRGVDYWGQGTQVTVSW | low polyreactivity
37 | QVQLVESGVGLVQAGGSLRLSCAPSGSTFWVNGMGWYRPAPGKERELVASISQSGDNTYYADSVKGRFTISRDNAKNTVYLQMNSLKPEDTAVSYCATRYQYGGFLYYRFDDWGQGTQVTVSS | high polyreactivity
38 | QVQLVESGVGLVQAGGSLRLSCASSGLTLNQYAIGWYRQAPGKERELVAAITRGGGSTYYADSVKGRFTISRDNAKYTVYLQMNSLKPEDTAVYYCATDNWWPTYHYQGGYYWGQGTQVTVSS | low polyreactivity
39 | QVQLVESGVGLVQAGGSLRLSCDATGSILGINVMGWYRQAPGKEREVVAAISRRGGSTYYADSVKGRFTISRDNSKNTVYLQMNSLKPEDTAVYYCAAGTSYYYGSYRFYYWGQGTQVTVSS | high polyreactivity
40 | QVQLVESGVGLVQAGGSLRLSSAASGFTFIYYAMGWYRQAPGKERELVAAITSGGNTYYADSVKGRFTISRDNAKNTDYLQMNSLTPEDPAVYYCNKVPHREWVGGYDYWGQGTQVTVSS | low polyreactivity
41 | QVQLVESGVGLVQAGGSLRLSSAASGRILRQYAMGWYRQAPGKERELVAAITSSGGSTYYADSVKGRFTISRDNAKNTVYLQMNSLKPEDTAVYYCNARLRGAKYDYWGQGTQVTVSS | high polyreactivity
